Test results reported in patent publication US8722052B2, “Vaccinia virus protein A46 peptide and use thereof” (priority 2008, dated 2014).
Ends that are not written are not given here.

How the values were obtained:
[1] = molecular target: T1, TLR4 (Mus musculus, UniProt Q9QUK6); test: LPS-induced TNFα in immortalised murine macrophages, ELISA; assay type: cell-based; design: endogenous in cells; immortalised murine bone-marrow-derived macrophages; settings: peptide 1, 3, 6.25 and 12.5 μM, 20 ng/ml LPS, 6 h
T1 sequence (Q9QUK6 26-835): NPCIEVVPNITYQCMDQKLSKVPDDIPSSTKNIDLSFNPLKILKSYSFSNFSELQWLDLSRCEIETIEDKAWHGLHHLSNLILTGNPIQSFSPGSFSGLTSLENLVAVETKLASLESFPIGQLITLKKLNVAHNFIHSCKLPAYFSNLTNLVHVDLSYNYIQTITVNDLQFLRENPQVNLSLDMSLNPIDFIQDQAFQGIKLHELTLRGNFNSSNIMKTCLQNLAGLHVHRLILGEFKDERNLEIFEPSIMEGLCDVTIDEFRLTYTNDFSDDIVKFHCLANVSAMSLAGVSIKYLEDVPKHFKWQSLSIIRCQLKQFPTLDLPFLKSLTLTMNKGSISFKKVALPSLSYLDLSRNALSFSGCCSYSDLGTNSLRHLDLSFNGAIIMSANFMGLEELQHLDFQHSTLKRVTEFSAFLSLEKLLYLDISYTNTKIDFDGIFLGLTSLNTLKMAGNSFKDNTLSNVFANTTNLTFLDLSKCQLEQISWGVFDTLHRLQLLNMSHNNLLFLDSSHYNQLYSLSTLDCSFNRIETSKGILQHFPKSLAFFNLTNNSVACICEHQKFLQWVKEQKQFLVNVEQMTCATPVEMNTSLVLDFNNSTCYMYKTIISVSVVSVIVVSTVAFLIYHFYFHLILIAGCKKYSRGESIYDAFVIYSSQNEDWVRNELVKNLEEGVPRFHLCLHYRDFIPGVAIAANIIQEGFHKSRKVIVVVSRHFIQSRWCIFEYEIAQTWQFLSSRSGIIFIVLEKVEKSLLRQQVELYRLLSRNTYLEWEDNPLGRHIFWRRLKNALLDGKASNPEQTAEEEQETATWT
T1 sequence (Q9JHF9 19-160 partner): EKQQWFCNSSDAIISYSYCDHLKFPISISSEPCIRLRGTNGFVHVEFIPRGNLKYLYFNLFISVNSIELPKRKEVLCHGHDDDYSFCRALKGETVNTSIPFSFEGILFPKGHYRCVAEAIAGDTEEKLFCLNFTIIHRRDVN

[2] = system: TLR4; test: LPS-induced NFκB reporter assay in HEK293_TLR4 cells; assay type: cell-based, human; settings: peptide 1, 5 or 25 μM 1 h before 10 ng/ml LPS, 6 h
Sequence of TLR4 (O00206 24-839): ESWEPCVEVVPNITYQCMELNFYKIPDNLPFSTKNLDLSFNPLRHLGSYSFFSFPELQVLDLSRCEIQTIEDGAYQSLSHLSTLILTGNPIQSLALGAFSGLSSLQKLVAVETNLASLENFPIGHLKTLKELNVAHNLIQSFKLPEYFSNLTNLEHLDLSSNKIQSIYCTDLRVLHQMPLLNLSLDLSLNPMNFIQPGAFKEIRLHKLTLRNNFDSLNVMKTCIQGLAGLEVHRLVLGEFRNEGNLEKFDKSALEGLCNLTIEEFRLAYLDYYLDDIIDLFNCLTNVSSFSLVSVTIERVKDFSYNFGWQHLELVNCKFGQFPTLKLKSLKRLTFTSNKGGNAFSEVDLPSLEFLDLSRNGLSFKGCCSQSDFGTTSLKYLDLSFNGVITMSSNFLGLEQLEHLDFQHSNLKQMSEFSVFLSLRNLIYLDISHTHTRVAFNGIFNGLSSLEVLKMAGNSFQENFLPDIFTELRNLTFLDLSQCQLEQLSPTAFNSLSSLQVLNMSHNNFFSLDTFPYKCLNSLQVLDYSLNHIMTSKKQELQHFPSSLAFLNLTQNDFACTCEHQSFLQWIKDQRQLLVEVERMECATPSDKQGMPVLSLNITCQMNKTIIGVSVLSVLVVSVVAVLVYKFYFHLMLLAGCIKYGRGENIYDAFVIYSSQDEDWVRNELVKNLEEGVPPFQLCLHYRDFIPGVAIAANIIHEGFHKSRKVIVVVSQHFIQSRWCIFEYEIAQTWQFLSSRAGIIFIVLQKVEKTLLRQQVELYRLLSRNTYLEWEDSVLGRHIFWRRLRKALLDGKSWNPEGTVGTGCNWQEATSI
Sequence of TLR4 (Q9Y6Y9 17-160 partner limits assumed): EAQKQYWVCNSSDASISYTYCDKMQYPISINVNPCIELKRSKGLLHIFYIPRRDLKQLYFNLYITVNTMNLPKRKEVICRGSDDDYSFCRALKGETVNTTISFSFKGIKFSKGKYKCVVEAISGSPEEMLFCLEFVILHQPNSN
Protocol: (§1) FIGS. 20A and B are bar charts showing the effect of shortened A464 peptides with deletions of N- and C-terminal amino acids on TLR4- and TLR3-induced NFκB activation in HEK293 cells. HEK293_TLR4 (A) and HEK293_TLR3 (B) cells were seeded in 96 well plates (1.5×10^5 cells/ml) 24 hours before transfection with the plasmid DNA. Cells were transfected with 60 ng NFκB-Luciferase and 20 ng of TK-Renilla reporter genes, as in FIG. 11. A464N-2 (SEQ ID NO. 41) and A464C-3 (SEQ ID NO. 42) peptides were added to the cells at a concentration of 1, 5 or 25 μM the next day and cells were stimulated with either 10 ng/ml LPS (A) or 25 μg/ml Poly(I:C) (B) 1 hour after treatment with peptides. Cells were harvested and assayed for NFκB activation by reporter gene assay 6 hours after stimulation with the agonists. No peptides were added to the control wells (black bars). Data is representative of three experiments each performed in triplicate and is expressed as mean fold induction±s.d. relative to control levels;
FIGS. 24A and B are bar charts showing the effect of A464 on ligand-independent TLR4 signalling in HEK293 cells. HEK293_TLR4 cells were seeded in 96 well plate (1.5×10^5 cells/ml) 24 hours before transfection with NFκB-luciferase and TK-Renilla reporter gene plasmids. NFκB activation was stimulated by transfecting either 50 or 100 ng of CD4/TLR4-encoding plasmid or by stimulating with 10 ng/ml LPS. The total amount of plasmid DNA transfected into the cells was made up to 230ng by adding pcDNA. A464 (SEQ ID NO. 20) was added to the cells at a concentration of 5 or 25 μM 2 hours (A) or 9 hours (B) after the transfection or LPS-stimulation. Cells were harvested and assayed for NFκB activation by reporter gene assay 24 hours post-transfection. No peptides were added to the control wells (black bars). Data is representative of two experiments, each performed in triplicate and is expressed as mean fold induction±s.d. relative to control levels;
HEK293 cells were transfected using GeneJuice® a proprietary non-toxic transfection reagent. […]

[3] = molecular target: T2, TLR3 (Homo sapiens, UniProt O15455); test: poly(I:C)-induced NFκB / ISRE luciferase reporter assay in HEK293_TLR3 cells; assay type: cell-based; settings: peptide 1, 5 or 25 μM, 25 μg/ml Poly(I:C), 6 h
T2 construct: expressed in transfected cells
Protocol: FIGS. 11A and B are bar charts showing the effect of A464 and scrambled A464 (ConA464) on poly(I:C)-induced TLR3 signalling in HEK293 cells. HEK293_TLR3 cells were seeded in 96 well plates (1.5×10^5 cells/ml) 24 hours before transfection with the plasmid DNA. Cells were transfected with 60 ng of either ISRE-Luciferase (A) or NFκB-Luciferase (B) and 20 ng of TK-Renilla reporter gene plasmids. The total volume of plasmid DNA transfected into the cells was made up to 230 ng by adding pcDNA.
Scrambled A464 (ConA464) (SEQ ID NO. 32) and A464 (SEQ ID NO. 20) peptides were added to the cells at a concentration of 2, 5 or 10 μM the next day and cells were stimulated with 25 μg/ml poly(I:C) 1 hour after treatment with the peptide. Cells were harvested and reporter gene assays performed 6 hr after stimulation with the agonist. No peptides were added to the control wells (black bars). Data is representative of at least three experiments each performed in triplicate. Data are expressed as mean fold induction±s.d. relative to control levels;
as §1
HEK293 cells were transfected using GeneJuice® a proprietary non-toxic transfection reagent. 200 μl/well cells at a density of 1×10^5 cells/ml were seeded the day before transfection. 0.8 μl of GeneJuice was mixed with 9.2 μl of serum-free DMEM (SFM) per transfection and incubated for 5 min at room temperature before adding the appropriate amount of the plasmid DNA. The GeneJuice/SFM/DNA mixture was then incubated at room temperature for 15 min before adding to the cells. 10 μl per well of the GeneJuice/SMF/DNA mixture was added to the cells in triplicate and the cells were allowed to recover for 18-20 hours before stimulation. […]

[4] = system: TLR4; test: LPS-induced TNFα in PMA-differentiated U937 cells, ELISA; assay type: cell-based, human; settings: peptide 5 or 20 μM 1 h before 100 ng/ml LPS, 24 h
Protocol: FIGS. 3A and B are bar charts showing the effect of peptides derived from A46 on LPS-induced TNFα in human U937 cells. Cells were differentiated with 200 nM PMA and seeded in 96 well plates (2×10^5 cells/ml) 24 hours before treatment. A46 peptides were added to the cells at a concentration of 5 or 20 μM 1 hour before stimulating with 100 ng/ml LPS. Supernatants were collected 24 hours after stimulation and assayed for TNFα by ELISA. No peptides were added into the control wells (black bars). (A) peptides A461-A467 (SEQ ID NO. 17 to 23). (B) peptides A468-A4614 (SEQ ID NO. 24 to 30) (excluding A4612 SEQ ID NO. 28). Data is representative of at least two experiments each performed in triplicate and is expressed as mean±s.d;
Cytokine and chemokine production from cells or mouse serum was measured by ELISA using Duoset kits from R&D systems, according to the manufacturer's instructions.
LPS is a component of a cell wall of Gram-negative bacteria which is recognised by a homodimer of TLR4 and signals to NFκB via both a MyD88- and TRIF-dependent pathway (O'Neill and Bowie, 2007). In order to examine the effect of the peptides on TLR4-dependent gene induction in human cells, the human monocytic lymphoma cell line U937 was used. U937 cells were differentiated into macrophages by treatment with 200 nM PMA for 24 hours before any further manipulations. […]

[5] = system: PBMCs; test: MTT cell viability assay, PBMC; assay type: cell-based, human; settings: peptide 1, 5 and 25 μM
Protocol: FIGS. 13A and B are bar charts showing the effect of A467 and A464 on LPS-induced TNFα production and on cell viability in primary human cells. Peripheral blood mononuclear cells (PBMCs) were seeded in 96 well plates (1 ×10^6 cells/ml) 24 hours before treatment. A467 (SEQ ID NO. 23) and A464 (SEQ ID NO. 20) were added to the cells at 1, 5 and 25 μM 1 hour before stimulating with 10 ng/ml LPS. The peptides were added into the unstimulated control wells at 25 μM. Supernatants were collected 6 hours after stimulation and assayed for TNFα production by ELISA (A). The cells were assayed for viability by the MTT assay (B). No peptides were added to the control wells (black bars). Data is representative of at least three experiments each performed in triplicate and is expressed as mean±s.d;
Cell viability was measured by assessing mitochondrial function using an MTT (3-(4,5-Dimethylthiazol-2-yl)-2,5-diphenyltetrazolium bromide) assay. Cells were seeded into 96 well plates and treated with peptides and agonists as described above in relation to the Figs. Wells containing medium only served as a blank control. To terminate treatment of cells, medium was removed and the cells were washed once with PBS. […] MTT was then removed and 200 μl per well of dimethyl sulphoxide (DMSO) was added and cells incubated for 20 min at 37° C. in the dark, prior to absorbance being read at 595 nm on a spectrophotometer.

9R-FKLIL (RRRRRRRRRFKLIL) [Peptide 9R-FKLIL]
inhibition of TLR4-induced murine TNFα by shorter versions of sA464N9R [1]: retained the ability to inhibit TLR4

9R-SFKLFL (RRRRRRRRRSFKLFL) [Peptide 9R-SFKLFL]
inhibition of TLR4-induced murine TNFα by shorter versions of sA464N9R [1]: did not

9R-SFKLI (RRRRRRRRRSFKLI) [Peptide 9R-SFKLI]
inhibition of TLR4-induced murine TNFα by shorter versions of sA464N9R [1]: did not

KYSFKLIL-9R (KYSFKLILRRRRRRRRR) [Peptide A464C-3]
inhibition of LPS-induced NFκB activation by shortened peptides [2]: inhibited LPS-induced NFκB activation completely at 1 μM
inhibition of Poly(I:C)-induced NFκB activation (TLR3) by shortened peptides [3]: no inhibition of TLR3 signalling to NFκB up to 25 μM

LILAEYIRHRNRRRRRRRRR [Peptide A465]
inhibition of LPS (TLR4)-induced TNFα production [4]: did not inhibit TLR4 responses

RNTISGNIYSARRRRRRRRR [Peptide A467]
toxicity (MTT) [5]: not toxic

SFKLILAEY-9R (SFKLILAEYRRRRRRRRR) [Peptide A464N-2]
inhibition of LPS-induced NFκB activation by shortened peptides [2]: inhibited LPS-induced NFκB activation completely at 1 μM
inhibition of Poly(I:C)-induced NFκB activation (TLR3) by shortened peptides [3]: no inhibition of TLR3 signalling to NFκB up to 25 μM
